# Patent US8637739B2, “Anti-nematode peptides and methods of use thereof” (Pioneer Hi Bred International Inc, priority 2011, dated 2014)
# Test system: C. elegans
# Experiment: C. elegans feeding assay
# Format: in vivo, Caenorhabditis elegans
# Procedure: The 75G5 strain was obtained from a biodiverse collection of bacterial strains. The strain was grown in Tryptic soy medium overnight at 20° C., with shaking at 225 rpm. 5 to 30 μL of the liquid culture was added into assay wells in 96-well plates. Each assay well contained 120 μL of liquid with ˜50 L1 staged C. elegans, 30 μg/mL tetracycline, 30 μg/mL chloramphenicol, and S-medium. E. coli strain OP50 was used as a negative control. Forty-eight hours later, the assay plates were scored under a microscope by checking the worm's growth and development.
# To further characterize the nematicidal activity, the 75G5 strain was cultured in 50 ml Tryptic soy medium at 20° C. for 18 h, with 225 rpm shaking. The cell pellet was collected after centrifugation at 700 rpm and then stored at −80 C. Total protein was extracted from the cell pellet using the B-PER II Bacterial Protein Extraction Reagent from Thermo. The lysate was centrifuged twice at 10,000 rpm and the final supernatant was collected as the total protein sample.
# The expression constructs were then transformed into E. coli TOP10 strain with carbenicillin selection. For protein expression, an E. coli overnight culture was diluted by 50 fold and grown at 37° C. for 2.5 hours (to OD600 ˜0.5). Protein expression was induced by adding 0.8 mM IPTG and the culture was grown for another 5 hours at 30° C. […]
molecule,measurement,setting,value
"RX025: small, active 25 kDa Sphingobacterium spiritivorum protein; putative twin arginine translocation pathway signal protein (protein, listed as Sphingobacterium spiritivorum) MHRREALQRVALLMGGTVIGANLFLEGCSRSASKDTAKLFEKDSVNFLGDLAEAILPKTSTPGAKEAGVGEFIPVMIRDCYADTEQKVFLDGINTVDERAKKEFGKKFQELSKEDQTKFVNILDKEASEYNAKQAEATKAQREKDALKQNEMYRVPKSDPPHWFTMFKQLTLTGFFTSELGATKALRYVKIPGKFDGNYPYKKGEHAWA",nematicidal activity (worm development),"E. coli TOP10 strains expressing the RX025 gene from pMAL (MBP fusion) and pQE80L, IPTG induced","inhibited worm development, arresting worms at the L1 stage"
same,nematicidal activity of purified protein bands,proteins in pooled Mono Q/Mono S fractions of strain 75G5 membrane associated proteins,active
